The values below come from patent US20220048967A1 (published 2022).

Substitutions are numbered along the chain they refer to. Numbered stars: 1 amine (or outer) side, 2 acyl side, 3 side chain; on linkers, the order of the positions; unused ones are H or OH. Square brackets hold non-standard residues; d marks the D form. Side chains are listed from the residue outwards. Ends that are not written are not given here. * marks the point of attachment. C20 diacid = O=C(O)CCCCCCCCCCCCCCCCCCC(=O)*; C18 diacid = O=C(O)CCCCCCCCCCCCCCCCC(=O)*; γGlu = O=C(O)[C@H](CCC(=O)[*:2])N[*:1]; AEEA = NCCOCCOCC(=O)O; Aib = CC(C)(N)C(=O)O

The target in assay [1] is T1, human gastric inhibitory peptide receptor (GIPR) (human, UniProt P48546 22-466).
T1 sequence (looked up): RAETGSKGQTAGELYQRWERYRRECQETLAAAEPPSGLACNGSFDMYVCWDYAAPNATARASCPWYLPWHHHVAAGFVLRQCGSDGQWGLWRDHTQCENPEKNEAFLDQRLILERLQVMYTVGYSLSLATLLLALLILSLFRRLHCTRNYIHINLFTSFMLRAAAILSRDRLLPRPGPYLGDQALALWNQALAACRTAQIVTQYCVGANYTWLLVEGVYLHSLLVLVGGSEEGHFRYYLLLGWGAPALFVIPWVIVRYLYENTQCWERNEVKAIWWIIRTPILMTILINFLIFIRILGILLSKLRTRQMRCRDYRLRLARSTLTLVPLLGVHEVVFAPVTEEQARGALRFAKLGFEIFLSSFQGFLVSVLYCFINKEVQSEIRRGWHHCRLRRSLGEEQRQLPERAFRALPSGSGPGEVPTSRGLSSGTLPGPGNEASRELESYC
The assay can be described thus: cell-based or functional assay.

The target of assay [2] is human GLP-1 receptor (GLP-1R) (human, UniProt P43220 24-463). The assay can be described thus: cell-based or functional assay.

B1: Example 330 (peptide)
peptide: Y[Aib]EGTFTSDYSILLDEK([AEEA-AEEA-γGlu-C20 diacid])AQ[Aib]AFIEYLIAGGPSSGAPPPS-NH2
modifications: N-terminus assumed
SMILES: CC[C@H](C)[C@H](NC(=O)[C@H](CC(C)C)NC(=O)[C@H](Cc1ccc(O)cc1)NC(=O)[C@H](CCC(=O)O)NC(=O)[C@@H](NC(=O)[C@H](Cc1ccccc1)NC(=O)[C@H](C)NC(=O)C(C)(C)NC(=O)[C@H](CCC(N)=O)NC(=O)[C@H](C)NC(=O)[C@H](CCCCNC(=O)COCCOCCNC(=O)COCCOCCNC(=O)CC[C@H](NC(=O)CCCCCCCCCCCCCCCCCCC(=O)O)C(=O)O)NC(=O)[C@H](CCC(=O)O)NC(=O)[C@H](CC(=O)O)NC(=O)[C@H](CC(C)C)NC(=O)[C@H](CC(C)C)NC(=O)[C@@H](NC(=O)[C@H](CO)NC(=O)[C@H](Cc1ccc(O)cc1)NC(=O)[C@H](CC(=O)O)NC(=O)[C@H](CO)NC(=O)[C@@H](NC(=O)[C@H](Cc1ccccc1)NC(=O)[C@@H](NC(=O)CNC(=O)[C@H](CCC(=O)O)NC(=O)C(C)(C)NC(=O)[C@@H](N)Cc1ccc(O)cc1)[C@@H](C)O)[C@@H](C)O)[C@@H](C)CC)[C@@H](C)CC)C(=O)N[C@@H](C)C(=O)NCC(=O)NCC(=O)N1CCC[C@H]1C(=O)N[C@@H](CO)C(=O)N[C@@H](CO)C(=O)NCC(=O)N[C@@H](C)C(=O)N1CCC[C@H]1C(=O)N1CCC[C@H]1C(=O)N1CCC[C@H]1C(=O)N[C@@H](CO)C(N)=O
As for B1, in assay [1], the “hGIPR cAMP EC50 ratio” value was found to be 0.562 and the “hGIPR cAMP Rel EC50” value was 0.0919 nM. Further, in assay [2], the “hGLP1R cAMP EC50 ratio” value worked out at 0.255 and the “hGLP1R cAMP Rel EC50” value was determined as 0.199 nM.
For F[Aib]EGTFTSDYSILLDKK([AEEA-AEEA-γGlu-C20 diacid])AQ[Aib]AFIEYLIEGGPSSGAPPPS-NH2 [Example 326], in assay [1], the “hGIPR cAMP EC50 ratio” value amounted to 1.5 and the “hGIPR cAMP Rel EC50” value is 0.0754 nM. Further, in assay [2], the “hGLP1R cAMP EC50 ratio” value was determined as 1.4 and the “hGLP1R cAMP Rel EC50” value came to 0.0369 nM.

B2: Example 323 (peptide)
peptide: YXEGTFTSDYSIXLDEKAQXAFIEYLIEGGPSSGAPPPS
modifications: Aib2, αMeL13, (2-[2-(2-Amino-ethoxy)-ethoxy]-acetyl)2-(γ-Glu)-CO-(CH2)16-CO2H on K17, Aib20, C-terminal NH2
For the molecule B2, in assay [1], the “hGIPR cAMP EC50 ratio” value was 3.24 and the “hGIPR cAMP Rel EC50” value was determined as 0.0251 nM. Further, in assay [2], the “hGLP1R cAMP EC50 ratio” value came out at 1.32 and the “hGLP1R cAMP Rel EC50” value turned out to be 0.0597 nM.

B3: Example 328 (peptide)
peptide: B2 peptide with Y1F, E16K, G29A
modifications: Aib2, αMeL13, (2-[2-(2-Amino-ethoxy)-ethoxy]-acetyl)2-(γ-Glu)-CO-(CH2)16-CO2H on K17, Aib20, C-terminal NH2
On to B3, for which, in assay [1], the “hGIPR cAMP EC50 ratio” value is 0.94 and the “hGIPR cAMP Rel EC50” value came out at 0.0965 nM. Also, in assay [2], the “hGLP1R cAMP EC50 ratio” value came out at 0.575 and the “hGLP1R cAMP Rel EC50” value is 0.117 nM.

B4: Example 329 (peptide)
peptide: B2 peptide with Y1X, F6X, X13L, E16K
modifications: D-Tyr1, Aib2, αMeF6, (2-[2-(2-Amino-ethoxy)-ethoxy]-acetyl)2-(γ-Glu)-CO-(CH2)18-CO2H on K17, Aib20, C-terminal NH2
As for B4, in assay [1], the “hGIPR cAMP EC50 ratio” value worked out at 0.687 and the “hGIPR cAMP Rel EC50” value is 0.132 nM. Besides, in assay [2], the “hGLP1R cAMP EC50 ratio” value worked out at 0.535 and the “hGLP1R cAMP Rel EC50” value is 0.125 nM.

B5: Example 324 (peptide)
peptide: B2 peptide with E16K, E28A
modifications: Aib2, αMeL13, (2-[2-(2-Amino-ethoxy)-ethoxy]-acetyl)2-(γ-Glu)-CO-(CH2)1s-CO2H (so in the source); probably (CH2)18) on K17, Aib20, C-terminal NH2
For B5, in assay [1], the “hGIPR cAMP EC50 ratio” value was determined as 2.13 and the “hGIPR cAMP Rel EC50” value amounted to 0.0374 nM. In assay [2], the “hGLP1R cAMP EC50 ratio” value was 0.798 and the “hGLP1R cAMP Rel EC50” value worked out at 0.0926 nM.

B6: Example 331 (peptide)
peptide: B2 peptide with A21E, E28A
modifications: Aib2, αMeL13, (2-[2-(2-Amino-ethoxy)-ethoxy]-acetyl)2-(γ-Glu)-CO-(CH2)18-CO2H on K17, Aib20, C-terminal NH2
In the case of B6, in assay [1], the “hGIPR cAMP EC50 ratio” value is 1.4 and the “hGIPR cAMP Rel EC50” value was 0.0547 nM. Moreover, in assay [2], the “hGLP1R cAMP EC50 ratio” value turned out to be 0.808 and the “hGLP1R cAMP Rel EC50” value amounted to 0.0929 nM.

B7: Example 327 (peptide)
peptide: B2 peptide with Y1F, E16K
modifications: Aib2, αMeL13, (2-[2-(2-Amino-ethoxy)-ethoxy]-acetyl)2-(γ-Glu)-CO-(CH2)18-CO2H on K17, Aib20, C-terminal NH2
B7: in assay [1], the “hGIPR cAMP EC50 ratio” value was determined as 1.47 and the “hGIPR cAMP Rel EC50” value is 0.0548 nM. Further, in assay [2], the “hGLP1R cAMP EC50 ratio” value was determined as 0.191 and the “hGLP1R cAMP Rel EC50” value worked out at 0.27 nM.

B8: Example 325 (peptide)
peptide: B2 peptide with F6X, X13L, E16K
modifications: Aib2, αMeF(2F)6, (2-[2-(2-Amino-ethoxy)-ethoxy]-acetyl)2-(γ-Glu)-CO-(CH2)18-CO2H on K17, Aib20, C-terminal NH2
In the case of B8, in assay [1], the “hGIPR cAMP EC50 ratio” value was 2.65 and the “hGIPR cAMP Rel EC50” value was 0.0301 nM. In assay [2], the “hGLP1R cAMP EC50 ratio” value stood at 1.16 and the “hGLP1R cAMP Rel EC50” value is 0.0586 nM.

B9: Example 321 (peptide)
peptide: Y[Aib]EGTFTSDYSILLDKK([AEEA-AEEA-γGlu-C18 diacid])AQ[Aib]TFIEYLIEGGPSSG-NH2
modifications: N-terminus assumed
SMILES: CC[C@H](C)[C@H](NC(=O)[C@H](CC(C)C)NC(=O)[C@H](Cc1ccc(O)cc1)NC(=O)[C@H](CCC(=O)O)NC(=O)[C@@H](NC(=O)[C@H](Cc1ccccc1)NC(=O)[C@@H](NC(=O)C(C)(C)NC(=O)[C@H](CCC(N)=O)NC(=O)[C@H](C)NC(=O)[C@H](CCCCNC(=O)COCCOCCNC(=O)COCCOCCNC(=O)CC[C@H](NC(=O)CCCCCCCCCCCCCCCCC(=O)O)C(=O)O)NC(=O)[C@H](CCCCN)NC(=O)[C@H](CC(=O)O)NC(=O)[C@H](CC(C)C)NC(=O)[C@H](CC(C)C)NC(=O)[C@@H](NC(=O)[C@H](CO)NC(=O)[C@H](Cc1ccc(O)cc1)NC(=O)[C@H](CC(=O)O)NC(=O)[C@H](CO)NC(=O)[C@@H](NC(=O)[C@H](Cc1ccccc1)NC(=O)[C@@H](NC(=O)CNC(=O)[C@H](CCC(=O)O)NC(=O)C(C)(C)NC(=O)[C@@H](N)Cc1ccc(O)cc1)[C@@H](C)O)[C@@H](C)O)[C@@H](C)CC)[C@@H](C)O)[C@@H](C)CC)C(=O)N[C@@H](CCC(=O)O)C(=O)NCC(=O)NCC(=O)N1CCC[C@H]1C(=O)N[C@@H](CO)C(=O)N[C@@H](CO)C(=O)NCC(N)=O
With B9, in assay [1], the “hGIPR cAMP EC50 ratio” value stood at 0.517 and the “hGIPR cAMP Rel EC50” value came out at 0.0752 nM. In assay [2], the “hGLP1R cAMP EC50 ratio” value stood at 0.437 and the “hGLP1R cAMP Rel EC50” value is 0.204 nM.

B10: Example 322 (peptide)
peptide: Y[Aib]EGTFTSDYSILLDKK([AEEA-AEEA-γGlu-C18 diacid])AQ[Aib]HFIEYLIEGGPSSG-NH2
modifications: N-terminus assumed
SMILES: CC[C@H](C)[C@H](NC(=O)[C@H](CC(C)C)NC(=O)[C@H](Cc1ccc(O)cc1)NC(=O)[C@H](CCC(=O)O)NC(=O)[C@@H](NC(=O)[C@H](Cc1ccccc1)NC(=O)[C@H](Cc1c[nH]cn1)NC(=O)C(C)(C)NC(=O)[C@H](CCC(N)=O)NC(=O)[C@H](C)NC(=O)[C@H](CCCCNC(=O)COCCOCCNC(=O)COCCOCCNC(=O)CC[C@H](NC(=O)CCCCCCCCCCCCCCCCC(=O)O)C(=O)O)NC(=O)[C@H](CCCCN)NC(=O)[C@H](CC(=O)O)NC(=O)[C@H](CC(C)C)NC(=O)[C@H](CC(C)C)NC(=O)[C@@H](NC(=O)[C@H](CO)NC(=O)[C@H](Cc1ccc(O)cc1)NC(=O)[C@H](CC(=O)O)NC(=O)[C@H](CO)NC(=O)[C@@H](NC(=O)[C@H](Cc1ccccc1)NC(=O)[C@@H](NC(=O)CNC(=O)[C@H](CCC(=O)O)NC(=O)C(C)(C)NC(=O)[C@@H](N)Cc1ccc(O)cc1)[C@@H](C)O)[C@@H](C)O)[C@@H](C)CC)[C@@H](C)CC)C(=O)N[C@@H](CCC(=O)O)C(=O)NCC(=O)NCC(=O)N1CCC[C@H]1C(=O)N[C@@H](CO)C(=O)N[C@@H](CO)C(=O)NCC(N)=O
B10: in assay [1], the “hGIPR cAMP EC50 ratio” value came out at 0.266 and the “hGIPR cAMP Rel EC50” value is 0.146 nM. For the same molecule, in assay [2], the “hGLP1R cAMP EC50 ratio” value is 0.125 and the “hGLP1R cAMP Rel EC50” value came out at 0.711 nM.
